# Laboratory results published in patent US20170252327A1, “Methods of Modulating Gastrointestinal Tract Flora Levels with Alkaline Phosphatase” (priority 2008, published 2017).
# Entries after “also recorded” stand apart in the source; their conditions may differ.
# B1: calf intestinal alkaline phosphatase (protein, UniProt P19111 20-506, looked up)
# Intestinal-type alkaline …: LVPVEEEDPAFWNRQAAQALDVAKKLQPIQTAAKNVILFLGDGMGVPTVTATRILKGQMNGKLGPETPLAMDQFPYVALSKTYNVDRQVPDSAGTATAYLCGVKGNYRTIGVSAAARYNQCKTTRGNEVTSVMNRAKKAGKSVGVVTTTRVQHASPAGAYAHTVNRNWYSDADLPADAQMNGCQDIAAQLVNNMDIDVILGGGRKYMFPVGTPDPEYPDDASVNGVRKRKQNLVQAWQAKHQGAQYVWNRTALLQAADDSSVTHLMGLFEPADMKYNVQQDHTKDPTLQEMTEVALRVVSRNPRGFYLFVEGGRIDHGHHDDKAYMALTEAGMFDNAIAKANELTSELDTLILVTADHSHVFSFGGYTLRGTSIFGLAPSKALDSKSYTSILYGNGPGYALGGGSRPDVNDSTSEDPSYQQQAAVPQASETHGGEDVAVFARGPQAHLVHGVEEETFVAHIMAFAGCVEPYTDCNLPAPTTATSIPD
# notes: calf intestinal alkaline phosphatase enzyme (Sigma)
# Columns and labels:
# gut microbiota [1] = assay: Restoration of gut flora after streptomycin treatment with or without cIAP (stool culture in LB media); format: in vivo, mice (C57BL/6)
# Description: To address the role of intestinal alkaline phosphatase on the gastrointestinal tract flora of mammals, an experiment was performed in which five approximately six week old mice (C57BL/6) of each test group were treated with an antimicrobial drug, streptomycin, in the presence or absence of calf intestinal alkaline phosphatase (cIAP) (Sigma, St. Louis, Mo.). Both streptomycin (5 mg/ml) and cIAP (50 units/ml) were administered orally with the animal's drinking water. Individual stool samples of each group were cultured in LB media each day and analyzed for the presence/absence of gut flora. The gastrointestinal tract flora of mice before antibiotic treatment was considered as a baseline control for the normal gut flora (present in all samples).
# gut microbiota [2] = assay: Restoration of gut flora after ampicillin treatment with or without cIAP (stool culture in LB media); format: in vivo, mice (C57BL/6)
# Description: An experiment was performed in which five mice (C57BL/6) of each test group, approximately 6 weeks old, were treated with 1 mg/ml of the antimicrobial drug ampicillin, in the presence or absence of calf intestinal alkaline phosphatase (cIAP) (New England Biolabs, Ipswich, Mass.). Ampicillin was administered orally with the animal's drinking water at a concentration of 1 mg/ml, and 250 units of cIAP were administered twice daily as oral gavage. Individual stool samples of each group were cultured in LB media each day and analyzed for the presence/absence of the gut flora. The gut flora of mice before receiving the antibiotic was considered as a baseline control for normal gastrointestinal tract flora (present in all samples). […] Both treatment groups received ampicillin for 10 days.
# [3] = format: physicochemical; conditions: 24 h
# Description: IAP activity was determined following the protocol as described by Baykov et al. (Anal Biochem, 171:266, 1988). Briefly, individual stool samples were homogenized in water (10 mg/100 μl), centrifuged and supernatant was collected. Then 25 μl of the stool supernatant (or aqueous cIAP solution) were mixed with 175 μl phosphatase assay reagent containing 5 mM of p-nitrophenyl phosphate (pNPP) followed by determining optical density at 405 nm after a specific time period when the samples usually turned yellow due to release of p-nitrophenol. Protein concentrations of stool supernatants were measured using a kit from Bio-Rad Laboratories (Hercules, Calif.). The specific activity of the enzyme, expressed as pmole pNPP hydrolyzed per minute per μg of protein, and CFU per gm of stool +/− SEM were determined and the results are shown in FIG. 3. As expected, IAP activity is lower in hypothyroid animals (Weeks 6-32, FIG. 3A) as compared to the euthyroid animals (Week 0, FIG. 3A). […] At Week 32 the IAP activity in hyperthyroid animals was approximately 7-fold higher compared to euthyroid animals and 15-fold higher compared to hypothyroid animals. […] On the other hand the fecal bacterial counts in hyperthyroid animals continued to gradually increase, being the highest at Week 32 when the experiment was terminated (FIGS. 3B, 3C, and 3D). […]
# [4] = tested on: streptomycin-resistant E. coli; assay: Survival of gavaged commensal E. coli in IAP-KO mice given oral cIAP; format: in vivo; conditions: oral supplementation of cIAP
# Excerpt: Two groups of IAP-KO animals (n=6) were put on drinking water containing cIAP or ‘vehicle for cIAP.’ On Day 2, animals were gavaged with 20,000 CFU of streptomycin-resistant E. coli, which is a commensal bacterium isolated from the stool of a WT mouse, and the presence of streptomycin-resistant E. coli in the stools of these animals was closely monitored. As only a few animals carried E. coli in their stools (FIG. 4B), the animals were gavaged with another dose of 50,000 CFU of E. coli on Day 5, however, again only a few animals shed E. coli in their stools. On Day 8, most of the animals of either group carried no E. coli in their stools. Supplementation of cIAP was stopped and the animals were treated with streptomycin for 3 days, which should kill most of the native flora, but would allow proliferation of the surviving streptomycin-resistant E. coli.
# [5] = tested on: streptomycin-resistant E. coli; assay: Colonization of E. coli in antibiotic-treated WT mice supplemented with cIAP; format: in vivo; conditions: WT mice after streptomycin and ciprofloxacin, p<0.015
# Description: To determine the temporal effects of IAP on the restoration of commensal gut flora, groups of WT animals (n=6) were treated with streptomycin (5 mg/ml) and ciprofloxacin (0.5 mg/ml) for three days followed by oral gavage of small doses (20,000 CFU) of streptomycin-resistant E. coli for two alternate days (FIG. 4C; Day 0 and Day 2) in the presence or absence of cIAP.
# [6] = tested on: Gram-negative bacteria (mostly E. coli); assay: Restoration of commensal Gram-negative gut flora in streptomycin-treated WT mice with or without cIAP (MacConkey agar); format: in vivo; conditions: for Number of animals with commensal Gram-negative bacteria / restoration of gut flora, cIAP+ vs cIAP- Group: after streptomycin for three days, cIAP 200 U/ml, p<0.00004
# Description: Accordingly, experiments were performed in which groups of WT mice (n=10) were treated orally with the antibiotic streptomycin in the presence or absence of cIAP. Streptomycin (5 mg/ml) and cIAP (200 U/ml for cIAP^+ Group, n=5) or ‘vehicle for cIAP’ (20 μl/ml ‘vehicle for cIAP’ (50 mM KCl, 10 mM Tris-HCl (pH 8.2), 1 mM MgCl, 0.1 mM ZnCl2, and 50% glycerol) in drinking water for control cIAP^− Group, n=5) were administered in the animals' drinking water and fecal cultures were performed.
# Individual stool samples were cultured each day on MacConkey agar media. […] After discontinuation of antibiotic treatment, the time of appearance (Day) of Gram-negative bacteria (mostly E. coli, occasionally P. mirabilis) in stool samples was recorded for each animal. The experiment was repeated six times, which raised the total number of animals in each group to 39 (n=39), however, duration of each experiment varied (7-35 days). Data was compiled from all six experiments and the number of animals with E. coli in each group on a specific day was recorded.
# [7] = tested on: streptomycin-resistant S. typhimurium; assay: Growth of Salmonella typhimurium in streptomycin-treated WT mice with or without cIAP; format: in vivo; conditions: for Growth of pathogenic S. typhimurium: cIAP in the drinking water
# Description: Restoration or maintenance of the normal gastrointestinal tract flora by IAP was postulated to inhibit infection by pathogenic bacteria because pathogenic bacteria would likely face competition for ‘food and shelter’ (e.g., nutrition, epithelial attachment sites, space, etc.) and antibacterial factors produced by commensal organisms. Accordingly, groups of WT mice (n=5) were treated with streptomycin (5 mg/ml) for 3 days, followed by oral gavage of 500,000 CFU of streptomycin-resistant S. typhimurium in the presence of cIAP (200 U/ml for cIAP^+ Group) or absence of cIAP (20 μl /ml ‘vehicle for cIAP’ (50 mM KCl, 10 mM Tris-HCl (pH 8.2), 1 mM MgCl2, 0.1 mM ZnCl2, and 50% glycerol) in drinking water for control cIAP^− Group). The presence of S. typhimurium was monitored in the stools of these animals by plating stools on Hektoen plates containing streptomycin (100 μg/ml).
molecule,measurement,setting,value
B1,Gut flora of mice receiving only cIAP,"gut microbiota [1]; cIAP 50 units/ml in drinking water, no streptomycin",normal gut flora phenotype; also recorded: did not affect normal gut flora
same,Effect of cIAP on reestablishment of normal gut flora,gut microbiota [1]; co-administered with streptomycin throughout the treatment period,significantly enhanced the early reestablishment of normal gut flora
same,Gut flora of mice receiving only cIAP,"gut microbiota [2]; 250 units cIAP twice daily oral gavage, no ampicillin",normal gut flora phenotype; also recorded: did not affect normal gut flora
same,Effect of cIAP on time for restoring the normal gut flora,gut microbiota [2]; with ampicillin,significantly reduced the time for restoring the normal gut flora
same,cIAP enzymatic activity remaining,[3],approximately 80%
same,Survival of E. coli in IAP-KO mice,[4],can survive
same,Survival of E. coli in IAP-KO mice,[4]; listed as IAP,favors survival of E. coli
same,Colonization of E. coli,[5],temporal enhancement of colonization of E. coli
same,Colonization of E. coli,[5]; listed as IAP,temporal enhancement of E. coli colonization
same,"Number of animals with commensal Gram-negative bacteria / restoration of gut flora, cIAP+ vs cIAP- Group",[6],much higher
same,"Number of animals with commensal Gram-negative bacteria / restoration of gut flora, cIAP+ vs cIAP- Group",[6]; listed as IAP,enhances the restoration of antibiotic-associated loss of gut flora
same,Day at the end of which all animals showed E. coli in their stools,"[6]; cIAP+ Group, after discontinuation of streptomycin",3 days
same,"Salmonella count, less than in cIAP- Group","[7]; cIAP 200 U/ml in drinking water, p<0.001",approximately 4 log
same,Growth of pathogenic S. typhimurium,[7],dramatically inhibited
same,Growth of pathogenic S. typhimurium,[7]; listed as IAP,inhibits Salmonella typhimurium infection
